{"source": "paper PMC4442108", "about": "“Preclinical Validation of the Heparin-Reactive Peptide p5+14 as a Molecular Imaging Agent for Visceral Amyloidosis” (Molecules, 2015)", "key": {"[1]": {"assay": "Solution stability (stated, unpublished data)", "type": "physicochemical", "conditions": "Wall and Kennel"}, "[2]": {"assay": "Dynamic PET/CT pharmacokinetics of 124I-p5+14 in WT mice", "type": "in vivo, mouse (WT)", "conditions": "post injection", "description": "Dynamic PET imaging required radioiodination of the peptide with positron emitter, Iodine-124 (^124I; IBA Molecular, Sterling, WV, USA). Peptide p5+14 was radiolabeled using the Iodogen (Piercechemical, Rockford, IL, USA) oxidation method, as described. Briefly, 10 µL of 0.5 M NaPO4 buffer pH 7.6 was added to a 1.5 mL microcentrifuge tube followed by addition of ~50 µL of ^124I (~2 mCi). One µL of 2 mg/mL fresh ascorbic acid solution in phosphate buffered saline (PBS) was added to ensure complete reduction of ^124I-iodine. Approximately 25 µL (~50 µg) of peptide dissolved in distilled H2O was mixed with ~75 µL of PBS and added to the reaction mixture. Seven µL of 1 mg/mL Iodogen dissolved in acetonitrile was added to initiate the reaction. After 2 min, the reaction was quenched by addition of 50 µL of 2 mg/mL ascorbic acid. Twenty µL of blue dextran and 50 µL of filtered (0.2 µm pore sized) 0.1% gelatin in PBS were added to the reaction mixture. Radiolabeled product was separated from free ^124I by size exclusion chromatography as described above. Fractions were manually collected as the blue dextran marker reached the base of the column and the radioactivity in each measured using a dose calibrator (Capintec, Model 15, Ramsey, NJ, USA) set for ^124I detection. Peak fractions were pooled for use in the study, and radiopurity was assessed as described above. […]"}, "[3]": {"molecular_target": "synthetic amyloid fibrils of recombinant human λ6 light chain variable domain of patient Wil (rVλ6Wil) (human)", "assay": "ELISA; EuLISA: rVλ6Wil fibrils coated and dried on NUNC Maxisorb wells (8 µg/mL, 50 µL, overnight 37 °C), blocked with 1% BSA; biotinylated p5+14 1 x 10^-10 to 1 x 10^-6 M, 1 h at 37 °C, PBS with 0.05% Tween 20; europium/streptavidin detection; n = 3"}, "[4]": {"molecular_target": "synthetic amyloid fibrils of recombinant human λ6 light chain variable domain of patient Wil (rVλ6Wil) (human)", "assay": "co-sedimentation; ex vivo amyloid binding assay: 25 µL of 1 mg/mL synthetic rVλ6Wil fibrils resuspended in 200 µL PBS with 0.05% Tween-20, ~5 ng 125I-p5+14 added, rotated at RT for 1 h, centrifuged twice at 15,000 x g; % of counts in the pellet"}, "[5]": {"molecular_target": "synthetic amyloid fibrils of recombinant human λ6 light chain variable domain of patient Wil (rVλ6Wil) (human)", "assay": "co-sedimentation; peptide binding assay with rVλ6Wil fibrils in suspension in 10 mM phosphate buffer (pH 7.6) containing 0.15 (PBS), 0.25, 0.5, 1.0 or 2.0 M NaCl; bound peptide as % total counts added; n = 2"}}, "note": "Where no end group is shown, it is not given here. The star is where a group is joined. 125I = [125I]*", "data": [{"molecule": "GGGYSKAQKAQAKQAKQAQKAQKAQAKQAKQAQKAQKAQAKQAKQ [p5+14]", "values": [{"measurement": "solution stability relative to p5", "setting": "[1]", "result": "greater solution stability"}, {"measurement": "time to clearance from healthy organs", "setting": "[2]", "result": "≤ 2", "unit": "h"}]}, {"molecule": "C(maleimide‑biotin)GGGYSKAQKAQAKQAKQAQKAQKAQAKQAKQAQKAQKAQAKQAKQ", "note": "[biotinylated p5+14 (with a cysteine residue at the N-terminal)]", "values": [{"measurement": "EC50", "setting": "[3]", "result": 15, "unit": "nM"}]}, {"molecule": "GGGY(125I)SKAQKAQAKQAKQAQKAQKAQAKQAKQAQKAQKAQAKQAKQ", "note": "[125I-p5+14 (radioiodinated peptide p5+14)]", "values": [{"measurement": "% bound", "setting": "[4]", "result": 95.7, "unit": "%"}, {"measurement": "% bound at 2 M NaCl", "setting": "[5]", "result": 20, "unit": "%"}, {"measurement": "% bound at the lowest NaCl concentration (0.15 M)", "setting": "[5]", "result": 95, "unit": "%"}, {"measurement": "NaCl concentration at half-maximal loss of binding (printed as EC50)", "setting": "[5]", "result": 1, "unit": "M"}]}]}
